The text below walks through data of US20220193251A1, “CD30 TARGETING ANTIBODY DRUG CONJUGATES AND USES THEREOF” (Ludwig-Maximilians-Universitaet Muenchen, priority 2020, published 2022).

One data set has as its target cathepsin B (Homo sapiens, UniProt P07858). The experiment in a line: Digestion of vc payloads with protease cathepsin B, RP-HPLC. It counts as biochemical. The note with it: cathepsin B 1:1000 for each vc moiety. How it is done:
Prior to the conjugation with the antibody, payloads 2 and 3 have been analyzed for their susceptibility to cleavage by the protease cathepsin B (FIGS. 5A-5C).
FIGS. 5A-5C show in FIG. 5A an RP-HPLC analysis of the valine-citrulline (vc) containing payload 2 during digestion reaction with the protease cathepsin B (1:1000 for each vc moiety). Prior to analysis the reaction was stopped with E-64. The chromatogram after a reaction time of 150 min was recorded at 220 nm. […] During the reaction of payload 3 with cathepsin B an intermediate is formed (grey, triangle) which contains one MMAE moiety.

Data set [1] can be described thus: Storage of ADCs in mouse-plasma for 7 days at 37° C. The format is in vitro ADME. The note with it: for DARav after plasma incubation n = 2 / Payload lost: mouse-plasma, 7 days at 37° C.
Data set [2] can be described thus: Repeated dose toxicity and toxicokinetics study in rats. The note with it: for Glucose level: one ADC compared to the other. The format is in vivo, Sprague Dawley rats. How it is done:
Experiments were performed in accordance with animal welfare law and approved by local authorities. […] Clinical observations, body weight and food consumption were determined daily throughout the study. Pharmacokinetic samples were obtained prior to each dose, 15 minutes post each dose and at necropsy from each animal. All animals were necropsied, with organs weighed and retained in fixative. Clinical pathology (hematology, clinical chemistry and coagulation end-points) samples were also taken at necropsy.
Clinical observations, body weight and food consumption were determined daily throughout the study. Pharmacokinetic samples were obtained prior to each dose, 15 minutes post each dose and at necropsy from each animal. All animals were necropsied, with organs weighed and retained in fixative. Clinical pathology (hematology, clinical chemistry, and coagulation endpoints) samples were also taken at necropsy.
As reference, rats were dosed with a control (vehicle) (data not shown).

Data set [3] is described as follows: Repeated dose toxicity and toxicokinetic study in cynomolgus monkey. The format is in vivo. Here is the method:
Clinical condition (incl. bodyweight, food consumption & clinical observations), clinical pathology and immunophenotyping (T, B and NK cells) was evaluated throughout the study, with frequent sampling for TK and anti-drug antibody determination. All animals were subject to full necropsy with detailed macroscopic observations.
Bodyweight is depicted in kilogram, lymphocytes in billion per liter, neutrophiles in billion per liter and white blood cells in billion per liter.

For data set [4] the following is noted: cynomolgus monkey, cited from earlier work.
The mark [5] stands for this setting: cynomolgus monkey, 6, 12 and 15 mg/kg.
[6] abbreviates: cynomolgus monkey, 6, 12 and 15 mg/kg repeated dose.
The mark [7] stands for this setting: rat, 10 mg/kg weekly, compared to the Brentuximab Tub-tag ADC.

With `CC[C@H](C)[C@H]([C@H](CC(=O)N1CCC[C@@H]1[C@@H](OC)[C@H](C)C(=O)N[C@@H](C)[C@H](O)c1ccccc1)OC)N(C)C(=O)[C@H](NC(O)[C@@H](C(C)C)N(C)C(=O)OCc1ccc(NC(=O)[C@@H](CCCNC(N)=O)NC(=O)[C@H](NC(=O)CON)C(C)C)cc1)C(C)C` (stereo partly shown) [payload 2, HA-VC-PAB-MMAE], at cathepsin B, the “susceptibility to cleavage by cathepsin B, release of free MMAE” value is “cleaved by cathepsin B”.

In the case of “Bren. HC-2: Brentuximab with Tub-tag on heavy chains (SEQ ID NO: 2/12), 3-formyl-L-tyrosine, oxime-linked Payload 2 (vc-PAB-MMAE), DAR 2”, in data set [1], the “DAR before plasma incubation” value came to 2, the “DARav after plasma incubation n = 2” value is given as 1.8 and the Payload lost is reported as 10%.

In the case of “Bren. LC-2: Brentuximab with Tub-tag on light chains (SEQ ID NO: 11/1), 3-formyl-L-tyrosine, oxime-linked Payload 2 (vc-PAB-MMAE), DAR 2”, in data set [1], the “DAR before plasma incubation” value stood at 2, the “DARav after plasma incubation n = 2” value stood at 1.8 and the Payload lost is listed as 10%. Moreover, in data set [2] (10 mg/kg weekly), the “overall safety profile in the rat” value was “better safety profile compared to Brentuximab vedotin”. Further, the “serum concentrations after repeated doses” value in data set [2] (rat, 10 mg/kg i.v. at day 1, 8, 15 and 22) is on record as “reasonable levels of serum concentrations”. In data set [2] (rat, 10 mg/kg weekly), the Hematocrit entry was “no marked effect”, the Hemoglobin levels result is “no marked effect”, the “MMAE driven testes changes” value is given as “delayed in onset” and the “Red blood cell count” value is “no marked effect”. Also, in data set [2] (rat, 10 mg/kg weekly), the Reticulocytes count entry is on record as “no effect”, the “impact on red blood cell populations” value is listed as “no impact on red blood cell populations” and the Glucose level result is “lower glucose levels”. Further, in data set [3] (setting [5]), the “lymphocytes concentration and white blood cells concentration” value is listed as “No significant changes”; the “reduction in neutrophiles in comparison to Brentuximab vedotin (3 mg/kg)” value is listed as “does not cause a higher amount of reduction in neutrophiles”. For the same compound, in data set [3] (setting [6]), the clinical tolerability entry is “clinically well tolerated”; the “mortality, macroscopic and microscopic findings” value is “no mortality and no macroscopic or sever microscopic findings”. The “reductions in red blood cells, hemoglobin and neutrophils” value in data set [3] (cynomolgus monkey, at 12 & 15 mg/kg) is recorded as “relatively consistent to those observed with Adcetris at 3 mg/kg”.

With “Brentuximab vedotin: approved CD30 ADC: chimeric IgG1 brentuximab, Cathepsin B cleavable Valin-Citrulline linker, Monomethyl-Auristatin E; maleimide-linked, DARav 4”, in data set [1], the “DAR before plasma incubation” value was determined as 4.02, the “DARav after plasma incubation n = 2” value came to 1.53 and the Payload lost was 62%. In data set [2] (rat, 10 mg/kg weekly), the Hematocrit entry is given as “reduces hematocrit (mainly in males)”, the Hemoglobin levels result is “reduces hemoglobin levels (mainly in males)”, the “MMAE driven testes changes” value is listed as “testes changes were observed” and the “Red blood cell count” value was “marked impact”. Further, in data set [2] (rat, 10 mg/kg weekly), the Reticulocytes count entry is listed as “marked impact” and the Glucose level entry is recorded as “greater level of glucose”. Moreover, in data set [2] (setting [7]), the APTT result is listed as “lower APTT values”, the Eosinophils counts entry is on record as “lower eosinophils counts”, the Testis weight entry is “lower testis weight” and the Thymus weight result is on record as “lower thymus weight”. Also, the “tolerability at 6 mg/kg” value in data set [4] (6 mg/kg) is recorded as “poorly tolerated”. Besides, the MTD in data set [4] was 3 mg/kg.

On to HA-(VC-PAB-MMAE)2 [payload 3], for which, on cathepsin B, the “susceptibility to cleavage by cathepsin B, release of free MMAE” value was “cleaved by cathepsin B”.
